According to publication PMC6090078:

Test system: T1, AcrR (His6-AcrR) (Acinetobacter nosocomialis ATCC 17903 (NCTC 8102)?), ORF:b0b0015b
T1 sequence: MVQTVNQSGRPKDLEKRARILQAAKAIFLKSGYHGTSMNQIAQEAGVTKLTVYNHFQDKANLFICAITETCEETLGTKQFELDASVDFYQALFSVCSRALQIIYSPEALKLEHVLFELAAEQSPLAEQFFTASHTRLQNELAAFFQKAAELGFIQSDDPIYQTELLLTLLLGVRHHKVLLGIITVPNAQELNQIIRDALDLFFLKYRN
Experiment: EMSA

AAAACCCTCTAATAAAAGATTAAAAAAATAAATATTTATAAGTTTTTTTTAATTAATGTACCCATGGGTATATTAATTAAAAAACAAACAAACTATGATGCAAGCATATTGTGCCTTAAAAAATCAGTTTGAATAAGAGCGATAAGAT (double strand) [PacrA/acrR promoter fragment, 148 bp]
binding: binds
